Laboratory results published in PMC6168492.

Key:
[1] = biological target: HSA N111S with C-terminal GST (human); assay: SPR; Biacore T200; albumin variants amine-coupled on CM5 (~200 or 500 RU); monomeric His-tagged hFcRn or mFcRn injected in serial dilutions; phosphate buffer (177 mM phosphate, 85 mM NaCl, 0.05% Tween 20) pH 5.5, 30 µl/min, 25 °C; 1:1 Langmuir model
[2] = biological target: DIII of HSA (residues 381-585) with C-terminal GST (human); assay: as above
[3] = biological target: HSA-mDI (HSA with mouse DI, residues 1-190 from MSA) with C-terminal GST (mouse | human); assay: as above
[4] = biological target: HSA K573P with C-terminal GST (human); assay: as above
[5] = biological target: HSA R114P with C-terminal GST (human); assay: as above
[6] = biological target: HSA-mLoopI + II (HSA T83N/M87L/N111S/R114P) with C-terminal GST (human); assay: as above
[7] = biological target: MSA P573K with C-terminal GST (mouse); assay: as above
[8] = biological target: DIII of MSA (residues 381-584) with C-terminal GST (mouse); assay: as above
[9] = biological target: MSA-hLoopI + II (MSA N83T/L87M/S111N/P114R) with C-terminal GST (mouse); assay: as above
[10] = biological target: MSA-hDI (MSA with human DI, residues 1-190 from HSA) with C-terminal GST (human | mouse); assay: as above
[11] = biological target: wild-type mouse serum albumin with C-terminal GST (mouse); assay: SPR; albumin immobilised (200 RU) on CM5 chip by amine coupling, serial dilutions of monomeric His-tagged FcRn injected; pH 5.5, 0.005% Tween20, 30 µl/min, 25 °C; 1:1 Langmuir model
wild-type mouse serum albumin with C-terminal GST (mouse), sequence (P07724 25-608): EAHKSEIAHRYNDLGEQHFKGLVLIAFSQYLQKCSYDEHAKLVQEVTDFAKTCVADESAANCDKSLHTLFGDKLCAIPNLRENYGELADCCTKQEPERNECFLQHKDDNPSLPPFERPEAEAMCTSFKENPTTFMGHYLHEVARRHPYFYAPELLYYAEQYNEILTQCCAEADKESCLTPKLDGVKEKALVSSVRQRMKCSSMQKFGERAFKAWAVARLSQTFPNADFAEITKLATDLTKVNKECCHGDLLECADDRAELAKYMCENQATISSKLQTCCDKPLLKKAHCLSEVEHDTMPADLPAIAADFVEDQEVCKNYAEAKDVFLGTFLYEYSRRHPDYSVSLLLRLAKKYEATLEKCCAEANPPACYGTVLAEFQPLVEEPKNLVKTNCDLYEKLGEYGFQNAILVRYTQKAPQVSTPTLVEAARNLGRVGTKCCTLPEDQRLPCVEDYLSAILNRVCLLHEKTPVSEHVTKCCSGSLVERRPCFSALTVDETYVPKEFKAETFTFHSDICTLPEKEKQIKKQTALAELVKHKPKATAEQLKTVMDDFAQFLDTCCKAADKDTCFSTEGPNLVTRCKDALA

Substance: soluble monomeric His-tagged human neonatal Fc receptor (hFcRn) (from UniProt P55899 24-297; P61769 21-119)
- Kd [1]: 0.162 µM
- koff [1]: 0.006 s⁻¹
- kon [1]: 37000 M⁻¹ s⁻¹
- Kd [2]: 3.17 µM
- koff [2]: 0.0349 s⁻¹
- kon [2]: 11000 M⁻¹ s⁻¹
- Kd [3]: 1.44 µM
- koff [3]: 0.0202 s⁻¹
- kon [3]: 14000 M⁻¹ s⁻¹
- Kd [4]: 0.0222 µM
- koff [4]: 0.0006 s⁻¹
- kon [4]: 27000 M⁻¹ s⁻¹
- Kd [5]: 0.554 µM
- koff [5]: 0.0122 s⁻¹
- kon [5]: 22000 M⁻¹ s⁻¹
- Kd [6]: 0.823 µM
- koff [6]: 0.0214 s⁻¹
- kon [6]: 26000 M⁻¹ s⁻¹
- Kd [7]: 3.67 µM
- koff [7]: 0.0734 s⁻¹
- kon [7]: 20000 M⁻¹ s⁻¹
- Kd [8]: 0.119 µM
- koff [8]: 0.0057 s⁻¹
- kon [8]: 48000 M⁻¹ s⁻¹
- Kd [9]: 0.145 µM
- koff [9]: 0.0074 s⁻¹
- kon [9]: 51000 M⁻¹ s⁻¹
- Kd [10]: 0.0702 µM
- koff [10]: 0.0047 s⁻¹
- kon [10]: 67000 M⁻¹ s⁻¹

Substance: soluble monomeric His-tagged mouse neonatal Fc receptor (mFcRn) (from UniProt Q61559 22-297; P01887 21-119)
- Kd [4]: 1.23 µM
- koff [4]: 0.0197 s⁻¹
- kon [4]: 16000 M⁻¹ s⁻¹
- Kd [8]: 0.62 µM
- koff [8]: 0.0093 s⁻¹
- kon [8]: 15000 M⁻¹ s⁻¹
- Kd [9]: 0.375 µM
- koff [9]: 0.0075 s⁻¹
- kon [9]: 20000 M⁻¹ s⁻¹
- Kd [10]: 0.705 µM
- koff [10]: 0.0148 s⁻¹
- kon [10]: 21000 M⁻¹ s⁻¹

Substance: soluble mouse neonatal Fc receptor (mFcRn), His-tagged, monomeric (from UniProt Q61559 22-365; P01887 21-119)
- Kd [11]: 0.324 µM
- koff [11]: 0.0123 s⁻¹
- kon [11]: 38000 M⁻¹ s⁻¹
